From US20210347868A1 (published 2021)
Blank lines part the entries; values can stand above or below the binder they belong to.

Key:
[1] = biological target: T1, biotinylated alpha-synuclein peptide, residues 111-140 (human, biotinylated (position not given)); assay: Octet biolayer interferometry, biotinylated peptide on streptavidin biosensor
T1 construct: also called syn111-140

[2] = biological target: full-length (140 amino acid) human alpha-synuclein with C-terminal AviTag, biotinylated, his-tag removed by … (human, UniProt P37840 1-140); assay: isothermal titration calorimetry in PBS, antibody:synuclein (1:2) model; Kd only on the graph
Procedure: FIGS. 5A-5C show affinity binding of human anti-synuclein antibodies for full-length synuclein protein as determined by isothermal titration calorimetry (ITC). […] The thermodynamic parameters and the equilibrium dissociation constants, Kd, were determined upon fitting the ITC data to a model assuming a single set of binding sites corresponding to an antibody:synuclein (1:2) binding model. Continuous lines represent the best fit of experimental data assuming a single set of binding sites. Experiments were performed in PBS. Equilibrium dissociation constants (Kd) are shown on the individual graphs.
The affinities of antibodies for full length synuclein protein were determined in solution on a MicroCal Auto-iTC200 system (Malvern Panalystical; Malvern, United Kingdom). […] The thermodynamic parameters and the equilibrium dissociation constants, Kd, were determined upon fitting the ITC data to a model assuming a single set of binding sites corresponding to an antibody:synuclein (1:2) binding model (FIG. 5).

[3] = biological target: T2, biotinylated alpha-synuclein peptide, residues 121-140 (human, biotinylated (position not given)); assay: Octet biolayer interferometry; table of peptide regions bound by anti-synuclein mAbs
T2 construct: also called syn121-140

- binding result [1]: binds
- binding result [2]: binds
B1: human anti-alpha-synuclein antibody 336.1 (hantiAsyn-336.1) (antibody, V domains shown)
VH: EVQLVQSGGTLVQPGGSLRLSCAASGFTFSTYAISWVRQAPGRGLEWVSFITGDGSRILYADSVRGRFSISRDNSKNTLYLQMNSLRTDDTAMYYCVFNHYWGQGTLVTVSS
VL: AIQLTQSPDSLAVSLGERATINCKASQSLLYSSNNRNYLAWYQQKPGQPPKALIYWASTRESGVPDRFSGSGSGTDFTLTISSLQAEDVAVYYCHQYYTTHSFGQGTKLEIK

- binding result [1]: binds
- binding result [2]: binds
- binding result [3]: binds
B2: human anti-alpha-synuclein antibody 323.1 (hantiAsyn-323.1) (antibody, V domains shown)
VH: EVQLLESGGGLVQPGGSLKLSCAASGFTFSASAMHWVRQTSDKRLEWVGRIRNKANNYATAYAASVKGRFTISRDDSKNTAYLQMNSLKTEDTAVYYCTRHLSLGGNSVDYWGQGTPVTVSS
VL: DVVMTQSPLSSPVTLGQPASISCRASQSPVHSDGNTYLSWLQQRPGQPPRLLIYTISNRFPGVPDRFSGSGAGTDFTLRISRVEAEDVGVYYCMQGTQFPYTFGQGTKLEIK
